The values below come from patent publication US20250152627A1 (published 2025).

Experiment [1] addresses IgK leader-ALFA Tag-RR Zip-Myc Tag-PDGFRβ TM-sfGFP. Kind of experiment: flow cytometry cell binding.
For experiment [2] the target is unchanged. Kind of experiment: flow.

B1: AM0627-35 aa Linker-EE Zip (enzyme)
chain: ANTPEHIGNDLKLFKDSSCTSLKPDVKNTSAFQSDAMKELATKILAGHYKPDYLYAEYRALPSPRQTGKNLRIGDGFSKYDNMTGVYLEKGRHVVLVGKTEGQEISLLLPNLMRKPAEGVQPTKDPNGWGLHKKQIPLKEGINIIDVETPANAYISYFTEDAGKAPKIPVHFVTGKANGYFDTTRGDTNKDWVRLLDQAVSPIMDARGKYIQVAYPVEFLKKFTKDRGTELINAYDKLIGIQYQLMGLDKYGKIPENRVLARVNFNYYMFRDGDGVAYLGNDGTMRMVTDPENVLKGDACWGFSHEVGHVMQMRPMTWGGMTEVSNNIFSLQAAAKTGNESRLKRQGSYDKARKEIIEGEIAYLQSKDVFNKLVPLWQLHLYFTKNGHPDFYPDVMEYLRNNAGNYGGNDTVKYQFEFVKACCDVTKTDLTDFFEKWGFFKPGKFHIGDYAQYDFNVTPEMVEETKKWIAGKGYPKPETDITELSEGGGGSGGGGSGGGGSGGGGSGGGGSGGGGSGGGGSMDPDLEIEAAFLERENTALETRVAELRQRVQRLRNRVSQYRTRYGPLGGGK
On to B1, for which the Kd in experiment [1] is approximately 0.45 nM.

B2: BT4244-35 aa Linker-EE Zip (enzyme)
chain: FSISEEYLIQNLDKSSTSVQIPINTSMELAQWSVSYEANWLQCSKQKTAAEGTFLRITVNENTGETKRTANIKVTSTTATYTITVNQYAKGEVIVEGDIKVTPTGGKASEHQEGQDIENTYDGKFSTDGAAPFHTPWGQSAKFPVTLEYYFKGDTEIDYLIYYTRSGNGNFGKVKVYTTTNPDRSDYTLQGEYDFKEQNAPSKVSFSEGIKATGIKFEVLSGLGDFVSCDEMEFYKTNTDKTLDKQLLTVFTDITCTEIKNNVTNEQIQALPDYFVRIAEAVRDNTYDKWEKEFRIRSYEPYSNIAEWADKLMTKKYSDLDNPTGISVKAGDDIIVLVGDTYGQNISMQCIWETGTEYKQTASSGDVYMLNPGVNKLTMKGEGQLFVMYNTELTSNTAKPIKIHIPLGSGTVNGFFDLKEHKTDEKYAELLKKSTHKYFCIRGEKIMFYFHRNKLLEYVPNNILSAIHLWDNIVGWQQELMGIDDVRPSQVNNHLFAISPEGSYMWASDYQIGFVYTYLGNILLEDNVMAAEDNAWGPAHEIGHVHQAAINWASSTESSNNLFSNFIIYKLGKYKSRGNGLGSVATARYANGQAWYNMGDATHQNEDTETHMRMNWQLWIYYHRCEYKTDFWQTLFKLMREVNMTEGEDPGKKQLEFAKMASKAANQNLTDFFEMWGFFEPVNTTIEQYGTYKYYVSDAMIREAKEYMAQFPAPKHAFQYIEDRKKSEFPSNDYRYSAVGDVGYYTQFKENQKITKAITAELAGRKVSIQNGDEAVAFELRENDENGKLLYFSTFTTFEIPSSILMGGGGSGGGGSGGGGSGGGGSGGGGSGGGGSGGGGSMDPDLEIEAAFLERENTALETRVAELRQRVQRLRNRVSQYRTRYGPLGGGK
In the case of B2, the Kd in experiment [1] is approximately 2.54 nM.

B3: StcE ΔX409-35 aa Linker-EE Zip (enzyme)
chain: ADNNSAIYFNTSQPINDLQGSLAAEVKFAQSQILPAHPKEGDSQPHLTSLRKSLLLVRPVKADDKTPVQVEARDDNNKILGTLTLYPPSSLPDTIYHLDGVPEGGIDFTPHNGTKKIINTVAEVNKLSDASGSSIHSHLTNNALVEIHTANGRWVRDIYLPQGPDLEGKMVRFVSSAGYSSTVFYGDRKVTLSVGNTLLFKYVNGQWFRSGELENNRITYAQHIWSAELPAHWIVPGLNLVIKQGNLSGRLNDIKIGAPGELLLHTIDIGMLTTPRDRFDFAKDKEAHREYFQTIPVSRMIVNNYAPLHLKEVMLPTGELLTDMDPGNGGWHSGTMRQRIGKELVSHGIDNANYGLNSTAGLGENSHPYVVAQLAAHNSRGNYANGIQVHGGSGGGGIVTLDSTLGNEFSHEVGHNYGLGHYVDGFKGSVHRSAENNNSTWGWDGDKKRFIPNFYPSQTNEKSCLNNQCQEPFDGHKFGFDAMAGGSPFSAANRFTMYTPNSSAIIQRFFENKAVFDSRSSTGFSKWNADTQEMEPYEHTIDRAEQITASVNELSESKMAELMAEYAVVKVHMWNGNWTRNIYIPTASADNRGSILTINHEAGYNSYLFINGDEKVVSQGYKKSFVSDGQFWKERDVVDTREARKPEQFGVPVTTLVGYYDPEGTLSSYIYPAMYGAYGFTYSDDSQNLSDNDCQLQVDTKEGQLRFRLANHRANNTVMNKFHINVPTESQPTQATLVCNNKILDTKSLTPAPEGLTYTVNGGGGSGGGGSGGGGSGGGGSGGGGSGGGGSGGGGSMDPDLEIEAAFLERENTALETRVAELRQRVQRLRNRVSQYRTRYGPLGGGK
Turning to B3, the Kd in experiment [2] was approximately 3.09 nM.
